{"source": "paper PMC2795092", "target": "purified full-length human hexahistidine-tagged 14-3-3η (human) (UniProt Q04917)", "sequence (Q04917 whole entry)": "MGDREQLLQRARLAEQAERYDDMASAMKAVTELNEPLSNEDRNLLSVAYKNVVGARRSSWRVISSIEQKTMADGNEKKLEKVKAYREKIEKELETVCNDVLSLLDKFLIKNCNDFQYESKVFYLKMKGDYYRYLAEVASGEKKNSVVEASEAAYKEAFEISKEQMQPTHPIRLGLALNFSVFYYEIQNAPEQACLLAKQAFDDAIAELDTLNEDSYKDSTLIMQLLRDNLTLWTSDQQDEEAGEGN", "assay": "pull-down"}
{"substance": "in vitro translated 35S-labeled androgen receptor (AR) (from UniProt P10275 1-920)", "values": [{"measurement": "densitometry of bound [35S] AR", "result": 15000}]}
